From publication PMC4857615 come the findings set out here.

The data set deals with Nc1ncnc2c1ncn2[C@@H]1O[C@H](COP(=O)(O)OP(=O)(O)OP(=O)(O)O)[C@@H](O)[C@H]1O. Put plainly: purified protein. As to conditions: co-substrate acetate, MgCl2 6.6 mM, HEPES 84 mM, 40 °C.

The term Km denotes the concentration of substrate that gives half-maximal velocity. Usually kcat stands for the number of substrate molecules converted per active site and unit of time at saturation. What is called kcat/Km is the turnover number divided by the Michaelis constant.

Take “EutQ (Salmonella enterica subsp. enterica serovar Typhimurium str. LT2)”: the Km amounted to 500 ± 100 µM, the kcat turned out to be 434 s⁻¹ and the kcat/Km came to 868000 ± 145000 M⁻¹ s⁻¹.

Take “EutP (Salmonella enterica subsp. enterica serovar Typhimurium str. LT2)”: the Km was determined as 500 ± 200 µM, the kcat was found to be 657 s⁻¹ and the kcat/Km was 1.31e+06 ± 377000 M⁻¹ s⁻¹.
